{"source": "paper PMC8064889", "target": "SARS-CoV-2 RBD, His6-tagged, for biolayer interferometry (SARS-CoV-2) (UniProt P0DTC2)", "assay": "BLI", "data": [{"substance": "CR3022 Fab", "values": [{"measurement": "Kd", "value": 46.3, "unit": "nM"}]}]}
